Assay results as given in article PMC8514705.

Target: recombinant DR4 extracellular domain (UniProt O00220)
Sequence (O00220 24-239): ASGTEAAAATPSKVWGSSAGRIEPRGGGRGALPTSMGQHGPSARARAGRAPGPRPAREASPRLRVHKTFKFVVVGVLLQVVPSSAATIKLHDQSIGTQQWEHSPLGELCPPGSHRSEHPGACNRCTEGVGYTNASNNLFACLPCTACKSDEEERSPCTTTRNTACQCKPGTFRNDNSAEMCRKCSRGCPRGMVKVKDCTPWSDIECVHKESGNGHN

decrease of surface DR4 on HCT116 and HT-29 cells with 1,000 ng/ml TRAIL, time course, flow cytometry: 90%
Substance: TRAIL (tumor necrosis factor-associated ligand inducing apoptosis), recombinant, amino acid residues 114-280 (from UniProt P50591 114-280)
